Values of other authors in US7930157B2, “Computational method and apparatus for predicting polypeptide aggregation or solubility” (Cambridge University Technical Services Ltd., priority 2003, dated 2011).
Read-outs that look alike come from different tables or passages of the source. Each block holds one compound with its values, some of them ahead of it. Where no end group is shown, it is not given here.

How the values were obtained:
[1] = for hydrophobicity: neutral pH, based on partition coefficients from water to octanol
[2] = for charge: neutral pH
[3] = normalised from 0 (high β-sheet propensity) to 1 (low); glycine from theoretical calculations
[4] = experimental aggregation rate of mutant relative to wild type; growth phase only
[5] = compared to the human calcitonin sequence
[6] = pH lower than 6.0, histidine positively charged
[7] = τ obtained using T1 (nucleation time)
[8] = τ obtained using T2 (half time of aggregation)

hydrophobicity [1]: 2.91 kJ/mol
Compound: N[C@@H](CCC(=O)O)C(=O)O [Glu (E), Glu]

charge (value in brackets) [2, 6]: +1 | hydrophobicity (value in brackets) [1, 6]: 2.87 kJ/mol
Compound: N[C@@H](Cc1c[nH]cn1)C(=O)O [His (H), His]

β-sheet propensity [3]: 0.34 | charge [2]: +1 | hydrophobicity [1]: 2.77 kJ/mol
Compound: NCCCC[C@H](N)C(=O)O [Lys (K), Lys]

β-sheet propensity [3]: 0.24 | charge [2]: 0 | hydrophobicity [1]: -2.13 kJ/mol
Compound: N[C@@H](Cc1c[nH]c2ccccc12)C(=O)O [Trp (W), Trp]

Compound: F23A: single-point mutation F23A of amylin (islet amyloid polypeptide), ref. 11 (KCNTATCATQRLANFLVHSSNNAGAILSSTNVGSNTY; ends and bridges not checked; cysteine pairing not given here; UniProt P10997 34-70, looked up, variant F23A)
observed ln (νmut/νwt) [4]: −2.65

Compound: G24A: single-point mutation G24A of amylin (islet amyloid polypeptide), ref. 11 (KCNTATCATQRLANFLVHSSNNFAAILSSTNVGSNTY; ends and bridges not checked; cysteine pairing not given here; UniProt P10997 34-70, looked up, variant G24A)
observed ln (νmut/νwt) [4]: −0.03

Compound: I26A: single-point mutation I26A of amylin (islet amyloid polypeptide), ref. 11 (KCNTATCATQRLANFLVHSSNNFGAALSSTNVGSNTY; ends and bridges not checked; cysteine pairing not given here; UniProt P10997 34-70, looked up, variant I26A)
observed ln (νmut/νwt) [4]: −2.39

Compound: L27A: single-point mutation L27A of amylin (islet amyloid polypeptide), ref. 11 (KCNTATCATQRLANFLVHSSNNFGAIASSTNVGSNTY; ends and bridges not checked; cysteine pairing not given here; UniProt P10997 34-70, looked up, variant L27A)
observed ln (νmut/νwt) [4]: −0.93

Compound: N22A: single-point mutation N22A of amylin (islet amyloid polypeptide), ref. 11 (KCNTATCATQRLANFLVHSSNAFGAILSSTNVGSNTY; ends and bridges not checked; cysteine pairing not given here; UniProt P10997 34-70, looked up, variant N22A)
observed ln (νmut/νwt) [4]: 0.69

Compound: S20G: single-point mutation S20G of amylin, ref. 12 (KCNTATCATQRLANFLVHSGNNFGAILSSTNVGSNTY; ends and bridges not checked; cysteine pairing not given here; UniProt P10997 34-70, looked up, variant S20G)
observed ln (νmut/νwt) [4]: 1.01

Compound: SEQ ID NO 14: calcitonin sequence reported in Zurdo & Dobson (WO 02/083734), 6 modified positions when compared to the human sequence (CGNLSTCMLGKLTQELRKLHTFPQTAIGVGAP; ends and bridges not checked; cysteine pairing not given here)
Observed (τmut/τwt) [5, 7]: 300 | observed ln (νmut/νwt) [5, 7]: −5.71 | Observed (τmut/τwt) [5, 8]: 100 | observed ln (νmut/νwt) [5, 8]: −4.61
